# Test: soluble on expression in E. coli; label from the status in PepcDB or PDB records
row,Sequence,soluble on expression in E. coli
1,MSIRNSASRDDTSASVEDSILDAARSCILDFGLRRTTLAEVARRAGVSRPTVYRRWSDTRAVVADLMTREIAAVMPEFSVEESVHRQLVDAVVHVSTEVRDHPLFVKILRSDQELFTTYILERLGTSQRAIIDQVAFAVSTGQDQGSIRAGDSRHIATMVLLIAQSAVQSAVMVAEELPGDALTEQLRHAVGAYLAPDVAVTHPTDRGDR,not soluble
2,MSLSQRTYGYGRVSTDEQTTSQQLTAIREAGHKVSDNRFIVDEGVSGGVCAMERPAFRNLVENKLEKGDTLVIAKLDRLGRDNIDVQQVVQMLTDKGIKLFILDLPVADLSSPEGKLMLQMFATFAEFEKNRISERIRDKLKQLKQEGKALGRPTKNVYDDVQELKAQGISQRTIADKLNVSLSTVRRNWVDTKRSLEVVTESGEGHHHHHH,soluble
3,MRMAQVVLENVTKVYENKVVAVKNANLVVEDKEFVVLLGPSGCGKTTTLRMIAGLEEITDGKIYIDGKVVNDVEPKDRDIAMVFQNYALYPHMTVYENMAFGLKLRKYPKDEIDRRVREAAKILGIENLLDRKPRQLSGGQRQRVAVGRAIVRNPKVFLFDEPLSNLDAKLRVQMRSELKKLHHRLQATIIYVTHDQVEAMTMADKIVVMKDGEIQQIGTPHEIYNSPANVFVAGFIGSPPMNFVNARVVRGEGGLWIQASGFKVKVPKEFEDKLANYIDKEIIFGIRPEDIYDKLFALAPSPENTITGVVDVVEPLGSETILHVKVGDDLIVASVNPRTQAKEEQKIDLVLDMTRMHAFDKETEKAII,soluble
4,MADYNIPHFQNDLGYKIIEIGVKEFMCVGATQPFDHPHIFIDMGSTDEKICPYCSTLYRYDPSLSYNQTNPTGCLYNPK,not soluble
5,MLAKRIIPCLDVRDGQVVKGVQFRNHEIIGDIVPLAKRYAEEGADELVFYDITASSDGRVVDKSWVSRVAEVIDIPFCVAGGIKSLEDAAKILSFGADKISINSPALADPTLITRLADRFGVQCIVVGIDTWYDAETGKYHVNQYTGDESRTRVTQWETLDWVQEVQKRGAGEIVLNMMNQDGVRNGYDLEQLKKVREVCHVPLIASGGAGTMEHFLEAFRDADVDGALAASVFHKQIINIGELKAYLATQGVEIRIC,not soluble
6,MLNEIICAGFGGQGVLTAGKIIMYVAYKAEKKITWFPSYGNEMRGGSANCNVVVSDEKIANPCVKNPDILLGMNSVSVDKYESLMKKNGYMFVNESLVSKDRKYREDINVIKVPVTEIAQNLGNEKAANICMLGAMVKSLDLFTKEEFESGMCEYFENQGKGKFNSKNVEAFEAGYDYE,not soluble
7,VKFIADPSGVDVLEEVEVFALGPTEVIVVGRLEFIYHEASDEYLEKFEGKLKKGVWYGTNIAVIFTLYRPAGSMEVDKIILDNTFEEIL,not soluble
8,MSLSIYKDINIASAKPSLKERKNIKHYALDHLNIDEKNNAPLFKTLLEDAMRVSSKEILLIVGGSSFYLKSILEGLSRMPKLSGEEVVKIEREIATLSNPYIFLKSIDPNMAFKIHPNDTYRTHKALEIFYATCTPPSEYFKANPKKPFEHAISLFALSIEKSALHNNIKRRTKNMLHSGLVEEIKALYTQYPKDSQPFKAIGVKESVLFLEKRLTLKELEEAITSNTMKLAKRQNTFNKTQFNNLYVGSAEEVRHAILKHSKSGIKGEGHHHHHH,not soluble
9,MGSDKIHHHHHHMSIQVKALSKRIDNREILRGITFTWQPGRIVGLVGRNGVGKTTLFRTMADHYLADEGELVIEGQSTLQQPYCRQKLFYIDTQRHFFGGRRLRQIITTYALAYDDFDQSQLTALLAAEHLSTKSYYQRLSKGQQMLFQILLALASHVPYIILDEPFDGLDIIVRERIVAYMVEEVAEHGVSFLISSHNLDELDGLCDQVLFLQHHELVADYDLESLRATARKFQLVFADKHIPAVVKEHGQLIKVYGRVLEVYFADYTPTIETALQQTQPLMMAVQPLTITDVFRVKLGDRQAVWGGV,not soluble
10,MASIWVGHRGTVRDYPDFSPSVDAEAIQKAIRGIGTDEKMLISILTERSNAQRQLIVKEYQAAYGKELKDDLKGDLSGHFEHLMVALVTPPAVFDAKQLKKSMKGAGTNEDALIEILTTRTSRQMKDISQAYYTVYKKSLGDDISSETSGDFRKALLTLADGRRDESLKVDEHLAKQDAQILYKAGENRWGTDEDKFTEILCLRSFPQLKLTFDEYRNISQKDIVDSIKGELSGHFEDLLLAIVNCVRNTPAFLAERLHRALKGIGTDEFTLNRIMVSRSEIDLLDIRTEFKKHYGYSLYSAIKSDTSGDYEITLLKICGGDD,soluble
11,MLQIIVPMAGAGSRFAVAGYTDPKPLIPVHGVPMIKVVIDNLTPDCPHRFIFICQAEQVAAYGLREKLNAWAPGCGIVELGGLTGGAACTVYAARHLINYDQQVMIANSDQYVDVDINAYLHAMNECDAAGLIMTMKASDPKWSFVGFDSQGHINRVVEKEVISDEATVGIYNFRSGGQLVSAIEAMVLKDLRVNGEFYVAPAYNELIEQGAKVIHYSIGAEGHGMYGLGIPVDLNLFLSLPLSRQAASGVGNLEHHHHHH,not soluble
12,MTTNPIELESCIIDQIRCPECALTCLQKNIYRHMTQIHNWTTEDCQELIAAIKSEKKSRASSTSFVCCHCRMIFRSVKHLVQHKKMCTEQPQHDNEHLDVYIDEMIVEGEEEVVGINEYDINETKESTQKPSTSSGDSFEMNIPPHRQASRPIQPHHLTQECQIATIIEKPSKFSLMQLPGKYRGCNLKCPECSSTSESLDEFLLHCRQEHMSHDQKFNLEREFFQSRDQFKEWFDQRQEDTCTSLTKRTGHAGETLYRCHRVGKYQSVAKSRKSNPRKIDQTCTAYLKVTTEEDGSTWATGCFTHIGHDLDHKLLWLTESQEKYVRELIDLGWTSDQIFFFIRNEYKDYECKLKYISKNDIRNITVRYNREREKLGFLTDTAKSSAIPISLKERRAVAADSTKEPREEDDDEVKAKIPRMQSKPDNIEKATTSENNSAKHREQVVDSETAEEDEYINVVDVDTMPPNDAGKITIGLNF,not soluble
13,MGSDKIHHHHHHMQQKKTTKEEYQKCVNVVVEYINQHLGEDIDLKSLARISNFSPFYFHRIMKAFLGEPIGTFIVRTRTEAAARLLRYSDIPIADIAYRIGYSSPSSLSKVFRQFYGISPLEYRNNKNFVIMKPAIIRPDLELKSEIKSIPARNVIYIRLSGDYKLNDYGGTWGRLWQFIKEQKLPMGDFSPLCIYHDDPKVTPAEKLRTDVCMVMPVQVAPKGDVGFKTLPAGRYAIFLYKGTYDNLQAVYDTIYGKCLPEMECTLRDEPSAERYLNNPCETAPEELLTEIYIPVE,not soluble
14,MLSFRNWWAREDSNPRPPGYEPGALPTELRAHTAIRLYSNKTPLSRSVISMKKDPIKEMLVKYPRILVIKAALKILKDGNKIDRERIEKTIVKIMTKKEG,not soluble
15,MGSDKIHHHHHHVERRIFGLENEYGVTCTFRGQRRLSPDEVARYLFRRVVSWGRSSNVFLRNGARLYLDVGSHPEYATPECDNLLDLVAHDKAGERILEGLQIDAEQRLREEGIAGDIYLFKNNTDSAGNSYGCHENYLVARHGEFGKLADVLIPFLVTRQIICGAGKVLQTPRGALYCVSQRAEHIWEGVSSATTRSRPIINTRDEPHADAERFRRLHVIVGDSNMSETTTLLKLASTDLVLRMIEANVPMRDFTLENPIRAIREISHDMTGRRKVRLANGREASALEIQREYLERVQSFVDRTGTDATGKRVLELWQRTLEAVESGNLDLVAREIDWVAKYKLLERYRAKHGLSLSSPRVAQLDLTYHDIHRDRGLFYLLQQRGQMERVVSDLRIFEAKSVPPQTTRARLRGEFIKKAQEKRRDFTVDWVHLKLNDQAQRTVLCKDPFKAVDERVEKLIAGM,not soluble
16,MGSSHHHHHHGKTIFVIVPTNEEQVAFLEALAKQDELNFDWQNPPTEPGQPVVILIPSDMVEWFLEMLKAKGIPFTVYVEEGGSENLYFQGGGGGGLQLKSHQRLAEKPRRDAFVPRAYTVEELAQFDGKKKPQVFVGVKGIIYNVSLEWYGPEGPYSAFAGCDSSRQLGKVIVGRDEINADWTTLAPEHLKTLHEWEERFHSKYPAVGWITDPNKNFVKRAASLSP,not soluble
17,MGSDKIHHHHHHMETSEILKKVRQIEIKTRGLSNNIFAGQYHSAFKGRGMSFSEVREYQFGDDIRDIDWNVTARFNKPYVKVFEEERELTVMLMVDVSGSLEFGTVKQLKKDMVTEIAATLAFSAIQNNDKIGVIFFSDRIEKFIPPKKGRKHILYIIRELIDFQPESRRTNIRLALEYLTNVMKRRCTAFILSDFIDQDNFKNALTIANRKHDVVALQVYDRRVSDLPPVGLMRIKDAETGHEQWIDTSSKAVRRAHRDWWINKQTELNDTFTKSNVDSVSVRTDQDYVKALLNLFAKRN,not soluble
18,MGSDKIHHHHHHKKAVINDSNTPLHLLQPAYQGTYGDLTPEQVKKDIDRVFAYIDKETPARVVDKNTGKVITDYTAMGDEAQLERGAFRLASYEWGVTYSALIAAAETTGDKRYTDYVQNRFRFLAEVAPHFKRVYEEKGKTDSQLLQILTPHALDDAGAVCTAMIKLRLKDESLPVDGLIQNYFDFIINKEYRLADGTFARNRPQRNTLWLDDMFMGIPAVAQMSRYDKEAKNKYLAEAVKQFLQFADRMFIPEKGLYRHGWVESSTDHPAFCWARANGWALLTACELLDVLPEDYPQRPKVMDYFRAHVRGVTALQSGEGFWHQLLDCNDSYLETSATAIYVYCLAHAINKGWIDAIAYGPVAQLGWHAVAGKINEEGQVEGTCVGTGMAFDPAFYYYRPVNVYAAHGYGPVLWAGAEMIRLLNTQHPQMNDSAVQYYQEKQKTTAPIFAVDSE,not soluble
19,MAHHHHHHMGVKFIVEHMDDLEEWCILEYMHICEIVKDENIIFTKFKGNFKDISKSHEPKCYEKSIGDLKDEFGWNKICLLDMKAKDVLTCKDKNEIDFLLFGGILGNVPSNDRTSELRKFEFPISRNLGSVQMTTNTAVLVCHIILNDQVELENIPFVDNPDIVLKNNKESMMLPFRFVSKYYYTKCESDKNVPILPKNFKDYLIKLGDQQYNDLDSFF,soluble
20,MGSDKIHHHHHHMEKFGLKALVPLLKLEDKELSSTYDHSMTLGADLSSMLYSLGIPRDSQDHRVLDTFQSPWAETSRSEVEPRFFTPESFTNIPGVLQSTVTPPCFNSIQNDQQRVALFQDETLFFLFYKHPGTVIQELTYLELRKRNWRYHKTLKAWLTKDPMMEPIVSADGLSERGSYVFFDPQRWEKCQRDFLLFYNAIM,not soluble
21,PKRSDARLPQVAAFSYVEDLLQAGVHVHLYTNGFLHSKLIMVDSQVASIGSTNMDFRSLENNFEFNGIIYDEPTVHRLEAIFFEDLLQSEPLDLKRWRKRSRIKKFSESFVRLFSPLL,not soluble
22,MSLARTLVIGNKNYSSWSMRPWIALKATGVAFDEVVIPLYTGDADKRRILAFTPAGKVPVLVDGDVTIWDSLAIIEYAAERFPKAQLWPDDVAARAHARSVAAEMHSGFAALRNECGMNIHRPVGAKQLSDAARADIARVQEIWIDCRHRYGRFGPYLFGRFSGVDAMFAPVVHRFRTYAVELDPIAQGYVEVMMALPAFQEWTQAALAETWVIDKFETEGHHHHHH,soluble
23,MGSDKIHHHHHHVSEALLEQAVSDVMPTKLAIIMRGLPGSGKSYWVEQFITSQGIEQAIHIRQHGLFSTDRYFYQQGQYRFNPQKIGQYHQANLTAFIQALARKEPIVICDNTNIAKWEFMAYEAAAKALGYQVKVVLVGQPDNDQHQQLCAQRNQHQVSLAHIQKMAQLFEE,not soluble

# Reference: the DeepSol protein solubility set
